Reference: patent US7378388B2, “Method of utilizing neurotrophins to manipulate reproductive capacity” (University of Medicine and Dentistry of New Jersey, priority 2001, dated 2008)

Experiments:
cumulus cells = assay: BDNF production and secretion by cultured cumulus cells (BDNF ELISA of culture medium); assay type: cell-based, human; conditions: 10 μM forskolin, cumulus cells cultured 24 h, P=0.016
Source text: Cumulus cells, which are a mass of epithelial cells surrounding the ovum in the ovarian follicle, were removed from oocytes in preparation for IVF and were dissociated in hyaluronidase (100 IU/ml, Sigma Chemical Company, St. Louis, Mo.) then washed twice with HBSS. The resulting preparation of cumulus cells was of ninety-nine percent (99%) pure.
For the purpose of examining the regulation of BDNF expression by cAMP, cumulus cells were combined between two subjects for each experiment. […] The culture media was collected after 24 hours of culture for assay of BDNF.
BDNF levels were determined using commercially available BDNF E max® immumoassay system (Promega, Madison, Wis.). The ELISA's were performed according to the manufacture's protocol. Follicular fluid, granulosa cell culture media, oocyte or embryo culture media was added to a 96-well immunoplate pre-coated with human BDNF specific monoclonal antibody. The plate was incubated at room temperature for 2 hours with shaking. Anti-BDNF monoclonal antibody was used as the capture Ab and Anti-BDNF pAb was used as reporter Ab. After washing, the amount of specifically bound pAb was detected using a species-specific anti-IgY antibody conjugated to horseradish peroxidase (HRP) as a tertiary reactant. […] Absorbency was measured at 450 nm using a microplate reader (Model Vmax kinetic microplate reader; Molecular Devices). […]

mouse oocytes [1] = assay: Effect of BDNF upon in vitro maturation of mouse oocytes; assay type: cell-based; conditions: 100 ng/ml BDNF
Protocol: Six (6) 4-5 week old female C57BL/6 mice (Taconic Labs, German Town, N.Y.) were given a single intraperitoneal injection of 7.5 IV PMSG (Sigma, St. Louis, Mo.). One hundred sixty (160) immature oocytes were harvested 48 hours after gonadotropin injection. Cumulus cells were removed mechanically (27 gauge insulin needles) at room temperature. Oocytes were equally divided into control and experimental groups. Immature oocytes (n-80) were incubated (5% CO2 in air, 37° C.) in Human Tubal Fluid (HTF, Conception Technologies, San Diego, Calif.) with 100 ng/ml BDNF (Peprotech, Inc. Rocky Hill, N.J.) Control oocytes (n=80) were cultured in HTF under the same conditions without addition of BDNF. […] (See FIG. 3).

mouse oocytes [2] = assay: Effect of NT-4/5 and NT-3 on in vitro maturation of mouse oocytes; assay type: cell-based
Protocol: Eighteen 4-5 week old female C57BL/6 mice (Taconic Labs, German Town, N.Y.) were given a single intraperitoneal injection of 7.5 IU PMSG (Sigma, St. Louis, Mo.). Five hundred thirty-six (536) immature oocytes were harvested 48 hours after gonadotropin injection. Cumulus cells were removed mechanically (27 gauge insulin needles) at room temperature. Immature oocytes were equally divided into control (n=218) and experimental (n=318) groups and cultured in 5% CO2 in air, 37° C. in Human Tubal Fluid (HTF, Conception Technologies, San Diego, Calif.) for 24 and 48 hours with 1 ng/ml (n=59), 10 ng/ml (n=98) and 100 ng/mI (n=11) of 10 NT-4/5 (Peprotech, Inc. Rocky Hill, N.J.) or 10 ng/ml (n=60) and 100 ng/ml (n=60) of NT-3 (Peprotech, Inc. Rocky Hill, N.J.) to examine the percentage of germinal vesicle breakdown. The percentage of polar body extrusion was also examined. Control oocytes (n=218) were cultured in HTF under the same conditions without addition of NT-4/5 (n=158) or NT-3 (n=60).

[3] = 24 and 48 hours in culture, compared to controls

For `C=C[C@@]1(C)CC(=O)[C@]2(O)[C@@]3(C)[C@@H](O)CCC(C)(C)[C@@H]3[C@H](O)[C@H](OC(C)=O)[C@@]2(C)O1` [Forskolin], the “increase of BDNF production” value (cumulus cells) was 11 fold.

B1: brain-derived neurotrophic factor (protein, UniProt P23560 19-247, looked up)
Neurotrophic factor BDNF …: APMKEANIRGQGGLAYPGVRTHGTLESVNGPKAGSRGLTSLADTFEHVIEELLDEDQKVRPNEENNKDADLYTSRVMLSSQVPLEPPLLFLLEEYKNYLDAANMSMRVRRHSDPARRGELSVCDSISEWVTAADKKTAVDMSGGTVTVLEKVPVSKGQLKQYFYETKCNPMGYTKEGCRGIDKRHWNSQCRTTQSYVRALTMDSKKRIGWRFIRIDTSCVCTLTIKRGR
notes: neurotrophin, soluble polypeptide growth factor, Trk B ligand (Peprotech)
In the case of B1, the “1st polar body extrusion” value (mouse oocytes [1]; 20 hours, control 6.3%, p=0.017) is reported as 18.8%, the “1st polar body extrusion” value (mouse oocytes [1]; 24 hours, control 6.3%, p=0.01) is reported as 20% and the “1st polar body extrusion” value (mouse oocytes [1]; 48 hours, control 7.5%, p=0.013) is reported as 21.3%.

B2: neurotrophin-3 (protein, UniProt P20783 139-257, looked up)
Neurotrophin-3: YAEHKSHRGEYSVCDSESLWVTDKSSAIDIRGHQVTVLGEIKTGNSPVKQYFYETRCKEARPVKNGCRGIDDKHWNSQCKTSQTYVRALTSENNKLVGWRWIRIDTSCVCALSRKIGRT
notes: neurotrophin, Trk C ligand (Peprotech)
For B2, the germinal vesicle breakdown (mouse oocytes [2]; [3]) was “did not alter” and the “mouse oocyte polar body extrusion” value (mouse oocytes [2]; [3]) was “did not alter”.

B3: neurotrophin-4/5 (protein, UniProt P34130 81-210, looked up)
Neurotrophin-4: GVSETAPASRRGELAVCDAVSGWVTDRRTAVDLRGREVEVLGEVPAAGGSPLRQYFFETRCKADNAEEGGPGAGGGGCRGVDRRHWVSECKAKQSYVRALTADAQGRVGWRWIRIDTACVCTLLSRTGRA
notes: neurotrophin, Trk B ligand (Peprotech)
B3 was tested, and the “mouse oocyte polar body extrusion” value (mouse oocytes [2]; 1.0 ng/ml, 48 hours, p<0.05) was “significantly influenced”, the “mouse oocyte polar body extrusion” value (mouse oocytes [2]; 10 ng/ml, 24 hours, <0.01) was “significantly influenced” and the “mouse oocyte polar body extrusion” value (mouse oocytes [2]; 10 ng/ml, 48 hours, p<0.01) was “significantly influenced”. For the same molecule, the germinal vesicle breakdown (mouse oocytes [2]; [3]) was “did not influence” and the “mouse oocyte polar body extrusion” value (mouse oocytes [2]; [3]) was “significantly promoted”.
